According to patent publication US20200087373A1 (UNIVERSITY OF COPENHAGEN, published 2020):
Ends that are not written are not given here. * marks the point of attachment. C16 diacid = O=C(O)CCCCCCCCCCCCCCC(=O)*

Legend:
human GIP receptor [1] = target: T1, human GIP receptor (human, UniProt P48546 22-466); experiment: 125I-hGIP(1-42) competition binding, COS-7 cells expressing human GIPR, without HSA;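 note: nonspecific binding defined as radioligand bound to cells lacking the transfected receptor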
T1 construct: whole, on cells; Transiently transfected COS-7 cells expressing the human GIP receptor; also called hGIPR
T1 sequence (looked up): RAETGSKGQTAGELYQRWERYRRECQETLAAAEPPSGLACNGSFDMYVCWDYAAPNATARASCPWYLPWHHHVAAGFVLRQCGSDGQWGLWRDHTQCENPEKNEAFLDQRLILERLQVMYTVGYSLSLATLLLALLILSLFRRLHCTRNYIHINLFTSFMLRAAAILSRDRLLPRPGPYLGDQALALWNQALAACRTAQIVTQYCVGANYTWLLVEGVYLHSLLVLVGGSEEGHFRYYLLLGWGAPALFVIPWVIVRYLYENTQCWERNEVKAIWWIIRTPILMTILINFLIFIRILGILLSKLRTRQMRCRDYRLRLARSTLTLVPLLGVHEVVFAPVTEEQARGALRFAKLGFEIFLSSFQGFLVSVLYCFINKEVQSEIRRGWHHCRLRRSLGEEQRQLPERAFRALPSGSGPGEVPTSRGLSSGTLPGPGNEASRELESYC
Protocol: (§1) After incubation, the cells were washed twice in ice-cold binding buffer (+/−2% HSA) and lysed using 200 mM NaOH with 1% SDS for 30 min. Nonspecific binding was determined as the binding of radioactive ligand to untransfected cells.

human GIP receptor [2] = target: T1, human GIP receptor; experiment: 125I-hGIP(1-42) competition binding, COS-7 cells expressing human GIPR, with 2% HSA;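 note: nonspecific signal taken as radioligand bound to untransfected cells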
Protocol: as §1

human GIP receptor [3] = target: T1, human GIP receptor; experiment: cell-based or functional assay
human GIP receptor [4] = target: T1, human GIP receptor; experiment: ratio of Ki with 2% HSA to Ki without HSA, 125I-hGIP competition binding on hGIPR COS-7 cells;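 note: nonspecific binding was defined as radioligand signal on cells lacking the receptor transfection, with cell lysates measured after washes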
Protocol: as §1

B1: AT156 [hGIP(5-30)NH2[H18K]-C16diacid/18] (peptide)
peptide: TFISDYSIAMDKIK(C16 diacid)QQDFVNWLLAQK-NH2
modifications: N-terminus assumed
SMILES: CC[C@H](C)[C@H](NC(=O)[C@H](CO)NC(=O)[C@H](Cc1ccc(O)cc1)NC(=O)[C@H](CC(=O)O)NC(=O)[C@H](CO)NC(=O)[C@@H](NC(=O)[C@H](Cc1ccccc1)NC(=O)[C@@H](N)[C@@H](C)O)[C@@H](C)CC)C(=O)N[C@@H](C)C(=O)N[C@@H](CCSC)C(=O)N[C@@H](CC(=O)O)C(=O)N[C@@H](CCCCN)C(=O)N[C@H](C(=O)N[C@@H](CCCCNC(=O)CCCCCCCCCCCCCCC(=O)O)C(=O)N[C@@H](CCC(N)=O)C(=O)N[C@@H](CCC(N)=O)C(=O)N[C@@H](CC(=O)O)C(=O)N[C@@H](Cc1ccccc1)C(=O)N[C@H](C(=O)N[C@@H](CC(N)=O)C(=O)N[C@@H](Cc1c[nH]c2ccccc12)C(=O)N[C@@H](CC(C)C)C(=O)N[C@@H](CC(C)C)C(=O)N[C@@H](C)C(=O)N[C@@H](CCC(N)=O)C(=O)N[C@@H](CCCCN)C(N)=O)C(C)C)[C@@H](C)CC
Human GIP receptor [1]
  Ki: 5 nM
Human GIP receptor [2]
  Ki: 29 nM
Human GIP receptor [3]
  cAMP accumulation Fold (fold change from GIP(5-30)NH2): 0.9 fold
  cAMP accumulation IC50: 24 nM
  cAMP accumulation logIC50: -7.62 log(M)
Human GIP receptor [4]
  Fold (Ki + HSA / Ki - HSA): 5.8 fold

B2: AT171 [hGIP(5-30)NH2[D9K]-C16diacid/9] (peptide)
peptide: TFISK(C16 diacid)YSIAMDKIHQQDFVNWLLAQK-NH2
modifications: N-terminus assumed
SMILES: CC[C@H](C)[C@H](NC(=O)[C@H](CO)NC(=O)[C@H](Cc1ccc(O)cc1)NC(=O)[C@H](CCCCNC(=O)CCCCCCCCCCCCCCC(=O)O)NC(=O)[C@H](CO)NC(=O)[C@@H](NC(=O)[C@H](Cc1ccccc1)NC(=O)[C@@H](N)[C@@H](C)O)[C@@H](C)CC)C(=O)N[C@@H](C)C(=O)N[C@@H](CCSC)C(=O)N[C@@H](CC(=O)O)C(=O)N[C@@H](CCCCN)C(=O)N[C@H](C(=O)N[C@@H](Cc1c[nH]cn1)C(=O)N[C@@H](CCC(N)=O)C(=O)N[C@@H](CCC(N)=O)C(=O)N[C@@H](CC(=O)O)C(=O)N[C@@H](Cc1ccccc1)C(=O)N[C@H](C(=O)N[C@@H](CC(N)=O)C(=O)N[C@@H](Cc1c[nH]c2ccccc12)C(=O)N[C@@H](CC(C)C)C(=O)N[C@@H](CC(C)C)C(=O)N[C@@H](C)C(=O)N[C@@H](CCC(N)=O)C(=O)N[C@@H](CCCCN)C(N)=O)C(C)C)[C@@H](C)CC
Human GIP receptor [1]
  Ki: 79.1 nM
Human GIP receptor [2]
  Ki: 500 nM
Human GIP receptor [3]
  cAMP accumulation Fold (fold change from GIP(5-30)NH2): 1.1 fold
  cAMP accumulation IC50: 31.6 nM
  cAMP accumulation logIC50: -7.5 log(M)
Human GIP receptor [4]
  Fold (Ki + HSA / Ki - HSA): 6.3 fold

B3: AT170 [hGIP(5-30)NH2[S8K]-C16diacid/8] (peptide)
peptide: TFIK(C16 diacid)DYSIAMDKIHQQDFVNWLLAQK-NH2
modifications: N-terminus assumed
SMILES: CC[C@H](C)[C@H](NC(=O)[C@H](CO)NC(=O)[C@H](Cc1ccc(O)cc1)NC(=O)[C@H](CC(=O)O)NC(=O)[C@H](CCCCNC(=O)CCCCCCCCCCCCCCC(=O)O)NC(=O)[C@@H](NC(=O)[C@H](Cc1ccccc1)NC(=O)[C@@H](N)[C@@H](C)O)[C@@H](C)CC)C(=O)N[C@@H](C)C(=O)N[C@@H](CCSC)C(=O)N[C@@H](CC(=O)O)C(=O)N[C@@H](CCCCN)C(=O)N[C@H](C(=O)N[C@@H](Cc1c[nH]cn1)C(=O)N[C@@H](CCC(N)=O)C(=O)N[C@@H](CCC(N)=O)C(=O)N[C@@H](CC(=O)O)C(=O)N[C@@H](Cc1ccccc1)C(=O)N[C@H](C(=O)N[C@@H](CC(N)=O)C(=O)N[C@@H](Cc1c[nH]c2ccccc12)C(=O)N[C@@H](CC(C)C)C(=O)N[C@@H](CC(C)C)C(=O)N[C@@H](C)C(=O)N[C@@H](CCC(N)=O)C(=O)N[C@@H](CCCCN)C(N)=O)C(C)C)[C@@H](C)CC
Human GIP receptor [1]
  Ki: 594 nM
Human GIP receptor [2]
  Ki: 1300 nM
Human GIP receptor [3]
  cAMP accumulation Fold (fold change from GIP(5-30)NH2): 32.4 fold
  cAMP accumulation IC50: 891 nM
  cAMP accumulation logIC50: -6.05 log(M)
Human GIP receptor [4]
  Fold (Ki + HSA / Ki - HSA): 2.2 fold

B4: AT169 [hGIP(5-30)NH2[I7K]-C16diacid/7] (peptide)
peptide: TFK(C16 diacid)SDYSIAMDKIHQQDFVNWLLAQK-NH2
modifications: N-terminus assumed
SMILES: CC[C@H](C)[C@H](NC(=O)[C@H](CO)NC(=O)[C@H](Cc1ccc(O)cc1)NC(=O)[C@H](CC(=O)O)NC(=O)[C@H](CO)NC(=O)[C@H](CCCCNC(=O)CCCCCCCCCCCCCCC(=O)O)NC(=O)[C@H](Cc1ccccc1)NC(=O)[C@@H](N)[C@@H](C)O)C(=O)N[C@@H](C)C(=O)N[C@@H](CCSC)C(=O)N[C@@H](CC(=O)O)C(=O)N[C@@H](CCCCN)C(=O)N[C@H](C(=O)N[C@@H](Cc1c[nH]cn1)C(=O)N[C@@H](CCC(N)=O)C(=O)N[C@@H](CCC(N)=O)C(=O)N[C@@H](CC(=O)O)C(=O)N[C@@H](Cc1ccccc1)C(=O)N[C@H](C(=O)N[C@@H](CC(N)=O)C(=O)N[C@@H](Cc1c[nH]c2ccccc12)C(=O)N[C@@H](CC(C)C)C(=O)N[C@@H](CC(C)C)C(=O)N[C@@H](C)C(=O)N[C@@H](CCC(N)=O)C(=O)N[C@@H](CCCCN)C(N)=O)C(C)C)[C@@H](C)CC
Human GIP receptor [1]
  Ki: 26.5 nM
Human GIP receptor [2]
  Ki: 126 nM
Human GIP receptor [3]
  cAMP accumulation Fold (fold change from GIP(5-30)NH2): 3 fold
  cAMP accumulation IC50: 81.3 nM
  cAMP accumulation logIC50: -7.09 log(M)
Human GIP receptor [4]
  Fold (Ki + HSA / Ki - HSA): 4.8 fold

B5: AT168 [hGIP(5-30)NH2[F6K]-C16diacid/6] (peptide)
peptide: TKISDYSIAMDKIHQQDFVNWLLAQK
modifications: C16-diacid (1,16-hexadecanedioic acid) on Lys at position 6 in GIP numbering (residue 2 of the entry); C-terminal amide
Human GIP receptor [1]
  Ki: 41.3 nM
Human GIP receptor [2]
  Ki: 97.7 nM
Human GIP receptor [3]
  cAMP accumulation Fold (fold change from GIP(5-30)NH2): 5.3 fold
  cAMP accumulation IC50: 148 nM
  cAMP accumulation logIC50: -6.83 log(M)
Human GIP receptor [4]
  Fold (Ki + HSA / Ki - HSA): 2.3 fold

B6: AT172 [hGIP(5-30)NH2[Y10K]-C16diacid/10] (peptide)
peptide: TFISDK(C16 diacid)SIAMDKIHQQDFVNWLLAQK-NH2
modifications: N-terminus assumed
SMILES: CC[C@H](C)[C@H](NC(=O)[C@H](CO)NC(=O)[C@H](CCCCNC(=O)CCCCCCCCCCCCCCC(=O)O)NC(=O)[C@H](CC(=O)O)NC(=O)[C@H](CO)NC(=O)[C@@H](NC(=O)[C@H](Cc1ccccc1)NC(=O)[C@@H](N)[C@@H](C)O)[C@@H](C)CC)C(=O)N[C@@H](C)C(=O)N[C@@H](CCSC)C(=O)N[C@@H](CC(=O)O)C(=O)N[C@@H](CCCCN)C(=O)N[C@H](C(=O)N[C@@H](Cc1c[nH]cn1)C(=O)N[C@@H](CCC(N)=O)C(=O)N[C@@H](CCC(N)=O)C(=O)N[C@@H](CC(=O)O)C(=O)N[C@@H](Cc1ccccc1)C(=O)N[C@H](C(=O)N[C@@H](CC(N)=O)C(=O)N[C@@H](Cc1c[nH]c2ccccc12)C(=O)N[C@@H](CC(C)C)C(=O)N[C@@H](CC(C)C)C(=O)N[C@@H](C)C(=O)N[C@@H](CCC(N)=O)C(=O)N[C@@H](CCCCN)C(N)=O)C(C)C)[C@@H](C)CC
Human GIP receptor [1]
  Ki: 281 nM
Human GIP receptor [2]
  Ki: 807 nM
Human GIP receptor [3]
  cAMP accumulation Fold (fold change from GIP(5-30)NH2): 14.1 fold
  cAMP accumulation IC50: 389 nM
  cAMP accumulation logIC50: -6.41 log(M)
Human GIP receptor [4]
  Fold (Ki + HSA / Ki - HSA): 2.8 fold
